From US20230110958A1 (Regeneron, published 2023)
Substitutions are numbered along the chain they refer to. Numbers in names are those of the source. Values belong to the molecule of their own block, whether it stands above or below them.

How the values were obtained:
Assay in all cases: cell-based or functional assay
[1] = molecular target: human IL27 receptor (IL27Ra and gp130) on NCI-H929/GAS-Luc cells (human) (UniProt Q6UWB1)
[2] = molecular target: T1, murine IL27 receptor (IL27Ra and gp130) on mouse cells (MC9/STAT3-Luc reporter cells; splenic CD4+ T cells) (mouse, UniProt O70394 25-623; Q00560 23-917)
T1 sequence (looked up) 1: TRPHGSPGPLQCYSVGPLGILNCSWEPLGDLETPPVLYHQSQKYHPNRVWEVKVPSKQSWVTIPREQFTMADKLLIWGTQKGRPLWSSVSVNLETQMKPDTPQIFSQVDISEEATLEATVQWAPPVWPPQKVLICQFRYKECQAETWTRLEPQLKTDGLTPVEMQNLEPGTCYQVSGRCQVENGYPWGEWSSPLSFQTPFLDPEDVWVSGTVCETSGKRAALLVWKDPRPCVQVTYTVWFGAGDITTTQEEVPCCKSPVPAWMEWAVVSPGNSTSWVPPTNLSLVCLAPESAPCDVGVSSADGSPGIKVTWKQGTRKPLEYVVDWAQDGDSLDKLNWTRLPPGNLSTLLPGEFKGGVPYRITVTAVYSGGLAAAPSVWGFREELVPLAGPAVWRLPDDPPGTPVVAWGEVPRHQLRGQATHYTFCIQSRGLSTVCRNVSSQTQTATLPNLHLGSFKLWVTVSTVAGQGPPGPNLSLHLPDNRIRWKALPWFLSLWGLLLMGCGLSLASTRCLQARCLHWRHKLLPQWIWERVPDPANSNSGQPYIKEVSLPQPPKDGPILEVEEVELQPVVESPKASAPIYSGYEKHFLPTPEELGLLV
T1 sequence (looked up) 2: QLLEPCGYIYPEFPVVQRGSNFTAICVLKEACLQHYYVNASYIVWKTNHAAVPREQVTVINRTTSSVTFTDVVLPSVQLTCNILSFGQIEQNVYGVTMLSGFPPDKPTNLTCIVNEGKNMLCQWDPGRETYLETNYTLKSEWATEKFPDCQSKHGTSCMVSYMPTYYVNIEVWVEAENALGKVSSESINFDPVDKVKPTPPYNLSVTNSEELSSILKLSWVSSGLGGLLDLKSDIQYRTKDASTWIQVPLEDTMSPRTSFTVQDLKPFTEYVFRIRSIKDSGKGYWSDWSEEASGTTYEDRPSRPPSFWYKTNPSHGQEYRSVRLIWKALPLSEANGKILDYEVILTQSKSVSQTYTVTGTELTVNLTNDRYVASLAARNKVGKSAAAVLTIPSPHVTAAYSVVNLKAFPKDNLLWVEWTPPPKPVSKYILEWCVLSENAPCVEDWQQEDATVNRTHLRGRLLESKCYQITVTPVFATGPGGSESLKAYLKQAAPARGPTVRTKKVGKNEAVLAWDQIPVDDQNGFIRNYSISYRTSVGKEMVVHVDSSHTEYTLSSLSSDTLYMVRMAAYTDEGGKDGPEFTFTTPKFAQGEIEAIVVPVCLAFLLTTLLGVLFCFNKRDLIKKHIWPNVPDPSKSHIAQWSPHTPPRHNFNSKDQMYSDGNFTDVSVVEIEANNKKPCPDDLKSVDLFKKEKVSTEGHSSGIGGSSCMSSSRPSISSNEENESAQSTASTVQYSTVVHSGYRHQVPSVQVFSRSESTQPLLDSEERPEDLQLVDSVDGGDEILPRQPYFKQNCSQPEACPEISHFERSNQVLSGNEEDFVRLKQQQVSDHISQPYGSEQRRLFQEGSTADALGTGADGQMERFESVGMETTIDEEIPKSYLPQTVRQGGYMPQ

[3] = molecular target: T2, murine IL27 receptor (IL27Ra and gp130) on mouse cells (MC9/STAT3-Luc reporter cells; splenic CD4+ T cells) (mouse) (UniProt O70394)
T2 sequence (looked up) 1: T1 sequence (looked up) 1
T2 sequence (looked up) 2: T1 sequence (looked up) 2

[4] = molecular target: T1, murine IL27 receptor (IL27Ra and gp130) …; remark: listed apart in the source

Sequence of human IL27 receptor (IL27Ra and gp130) on NCI-H929/GAS-Luc cells (human) (Q6UWB1 33-636, chain 1 of 2): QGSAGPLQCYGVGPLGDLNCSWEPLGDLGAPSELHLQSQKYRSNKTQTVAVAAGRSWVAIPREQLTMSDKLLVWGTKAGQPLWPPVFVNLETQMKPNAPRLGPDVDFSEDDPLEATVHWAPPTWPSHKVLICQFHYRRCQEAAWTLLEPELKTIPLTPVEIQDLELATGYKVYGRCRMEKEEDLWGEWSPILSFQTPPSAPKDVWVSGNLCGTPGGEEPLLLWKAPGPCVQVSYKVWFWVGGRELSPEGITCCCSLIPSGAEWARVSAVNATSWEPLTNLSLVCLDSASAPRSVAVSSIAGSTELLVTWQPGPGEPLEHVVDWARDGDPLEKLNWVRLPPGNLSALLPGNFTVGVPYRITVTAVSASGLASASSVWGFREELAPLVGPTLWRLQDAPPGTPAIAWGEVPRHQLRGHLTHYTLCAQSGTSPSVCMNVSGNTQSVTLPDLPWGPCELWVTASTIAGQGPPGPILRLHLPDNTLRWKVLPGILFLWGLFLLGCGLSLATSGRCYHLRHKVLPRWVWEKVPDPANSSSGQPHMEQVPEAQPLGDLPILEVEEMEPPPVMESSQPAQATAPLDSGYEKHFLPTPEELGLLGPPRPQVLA
Sequence of human IL27 receptor (IL27Ra and gp130) on NCI-H929/GAS-Luc cells (human) (chain, as listed by the source, chain 2 of 2): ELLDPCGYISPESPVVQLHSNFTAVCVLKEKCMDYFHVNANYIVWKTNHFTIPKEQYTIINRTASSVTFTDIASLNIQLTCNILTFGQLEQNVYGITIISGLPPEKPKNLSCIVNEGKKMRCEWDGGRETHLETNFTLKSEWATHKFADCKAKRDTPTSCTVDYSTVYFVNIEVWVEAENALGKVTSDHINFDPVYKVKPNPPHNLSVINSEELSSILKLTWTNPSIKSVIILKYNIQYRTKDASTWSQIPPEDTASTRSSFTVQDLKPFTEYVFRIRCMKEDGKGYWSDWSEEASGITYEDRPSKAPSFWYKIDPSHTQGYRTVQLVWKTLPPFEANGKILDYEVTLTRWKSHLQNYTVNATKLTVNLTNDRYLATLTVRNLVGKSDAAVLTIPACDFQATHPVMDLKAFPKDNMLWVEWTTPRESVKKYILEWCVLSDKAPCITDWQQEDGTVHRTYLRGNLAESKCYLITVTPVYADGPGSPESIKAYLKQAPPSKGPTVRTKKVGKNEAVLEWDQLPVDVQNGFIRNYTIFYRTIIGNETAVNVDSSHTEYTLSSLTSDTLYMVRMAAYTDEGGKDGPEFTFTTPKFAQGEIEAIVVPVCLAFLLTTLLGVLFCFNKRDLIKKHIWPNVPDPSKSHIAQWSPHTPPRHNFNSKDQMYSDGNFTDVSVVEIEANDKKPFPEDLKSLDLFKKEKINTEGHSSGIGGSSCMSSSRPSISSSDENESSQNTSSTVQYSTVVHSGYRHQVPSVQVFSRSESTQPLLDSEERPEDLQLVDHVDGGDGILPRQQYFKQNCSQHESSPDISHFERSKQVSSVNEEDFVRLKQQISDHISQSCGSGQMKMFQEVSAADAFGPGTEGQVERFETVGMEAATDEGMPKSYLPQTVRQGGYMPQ

EC50 (M), GAS luciferase, NCI-H929/GAS-Luc cells [1]: 1.27e-10 M | FOLD INDUCTION, GAS luciferase, NCI-H929/GAS-Luc cells [1]: 14.3 fold
Molecule: human hEBI3×hp28-Fc (monovalent) (Fc fusion)

EC50 (M), GAS luciferase, NCI-H929/GAS-Luc cells [1]: 5.35e-09 M | FOLD INDUCTION, GAS luciferase, NCI-H929/GAS-Luc cells [1]: 15.2 fold
Molecule: human EBI3-p28-Fc (bivalent), configuration IL27M1 (Fc fusion)

EC50 (M), STAT3 luciferase, MC9 cells [2]: 2.81e-10 M | FOLD INDUCTION, STAT3 luciferase, MC9 cells [2]: 2.71 fold
B1: IL27M14, 2:2 complex between IL27M13 (p28-Fc) and EBI3-mmh (Fc fusion)
chain 1: FPTDPLSLQELRREFTVSLYLARKLLSEVQGYVHSFAESRLPGVNLDLLPLGYHLPNVSLTFQAWHHLSDSERLCFLATTLRPFPAMLGGLGTQGTWTSSEREQLWAMRLDLRDLHRHLRFQVLAAGFKCSKEEEDKEEEEEEEEEEKKLPLGALGGPNQVSSQVSWPQLLYTYQLLHSLELVLSRAVRDLLLLSLPRRPGSAWDSGGGGSGGGGSGGGGSESKYGPPCPPCPAPPVAGPSVFLFPPKPKDTLMISRTPEVTCVVVDVSQEDPEVQFNWYVDGVEVHNAKTKPREEQFNSTYRVVSVLTVLHQDWLNGKEYKCKVSNKGLPSSIEKTISKAKGQPREPQVYTLPPSQEEMTKNQVSLTCLVKGFYPSDIAVEWESNGQPENNYKTTPPVLDSDGSFFLYSRLTVDKSRWQEGNVFSCSVMHEALHNHYTQKSLSLSLGK
chain 2: YTETALVALSQPRVQCHASRYPVAVDCSWTPLQAPNSTRSTSFIATYRLGVATQQQSQPCLQRSPQASRCTIPDVHLFSTVPYMLNVTAVHPGGASSSLLAFVAERIIKPDPPEGVRLRTAGQRLQVLWHPPASWPFPDIFSLKYRLRYRRRGASHFRQVGPIEATTFTLRNSKPHAKYCIQVSAQDLTDYGKPSDWSLPGQVESAPHKPEQKLISEEDLGGEQKLISEEDLHHHHHH

EC50 (M), STAT3 luciferase, MC9 cells [2]: 2.36e-10 M | FOLD INDUCTION, STAT3 luciferase, MC9 cells [2]: 2.86 fold
B2: IL27M18, 2:2 complex between IL27M17 (Fc-p28) and EBI3-mmh (Fc fusion)
chain 1: ESKYGPPCPPCPAPPVAGPSVFLFPPKPKDTLMISRTPEVTCVVVDVSQEDPEVQFNWYVDGVEVHNAKTKPREEQFNSTYRVVSVLTVLHQDWLNGKEYKCKVSNKGLPSSIEKTISKAKGQPREPQVYTLPPSQEEMTKNQVSLTCLVKGFYPSDIAVEWESNGQPENNYKTTPPVLDSDGSFFLYSRLTVDKSRWQEGNVFSCSVMHEALHNHYTQKSLSLSLGKGGGGSGGGGSGGGGSFPTDPLSLQELRREFTVSLYLARKLLSEVQGYVHSFAESRLPGVNLDLLPLGYHLPNVSLTFQAWHHLSDSERLCFLATTLRPFPAMLGGLGTQGTWTSSEREQLWAMRLDLRDLHRHLRFQVLAAGFKCSKEEEDKEEEEEEEEEEKKLPLGALGGPNQVSSQVSWPQLLYTYQLLHSLELVLSRAVRDLLLLSLPRRPGSAWDS
chain 2: B1 chain 2

EC50 (M), STAT3 luciferase, MC9/STAT3-Luc cells [3]: 3.22e-12 M | EC50 (M), STAT3 luciferase, MC9 cells [3]: 4.62e-12 M | EC50, luciferase activity, MC9/STAT3-Luc reporter cells [3]: 0.0063 nM | EC50, phosphorylation of STAT1 in CD4+ T-cells [3]: 0.0244 µg/mL | FOLD INDUCTION, STAT3 luciferase, MC9/STAT3-Luc cells [3]: 5.25 fold | FOLD INDUCTION, STAT3 luciferase, MC9 cells [3]: 2.86 fold
B3: Recombinant murine IL27 (R&D Systems cat# 2700-ML-010/CF), Mouse EBI3-(GGGS)4-Mouse p28-6-His tag (ligand)
chain: YTETALVALSQPRVQCHASRYPVAVDCSWTPLQAPNSTRSTSFIATYRLGVATQQQSQPCLQRSPQASRCTIPDVHLFSTVPYMLNVTAVHPGGASSSLLAFVAERIIKPDPPEGVRLRTAGQRLQVLWHPPASWPFPDIFSLKYRLRYRRRGASHFRQVGPIEATTFTLRNSKPHAKYCIQVSAQDLTDYGKPSDWSLPGQVESAPHKPGGGSGGGSGGGSGGGSFPTDPLSLQELRREFTVSLYLARKLLSEVQGYVHSFAESRLPGVNLDLLPLGYHLPNVSLTFQAWHHLSDSERLCFLATTLRPFPAMLGGLGTQGTWTSSEREQLWAMRLDLRDLHRHLRFQVLAAGFKCSKEEEDKEEEEEEEEEEKKLPLGALGGPNQVSSQVSWPQLLYTYQLLHSLELVLSRAVRDLLLLSLPRRPGSAWDSHHHHHH

EC50 (M), STAT3 luciferase, MC9/STAT3-Luc cells [4]: 1.16e-11 M | FOLD INDUCTION, STAT3 luciferase, MC9/STAT3-Luc cells [4]: 5.62 fold | EC50 (M), STAT3 luciferase, MC9 cells [2]: 1.18e-11 M | FOLD INDUCTION, STAT3 luciferase, MC9 cells [2]: 2.76 fold
B4: IL27M16, monovalent Fc x EBI3-p28 (Fc fusion)
chain 1: ESKYGPPCPPCPAPPVAGPSVFLFPPKPKDTLMISRTPEVTCVVVDVSQEDPEVQFNWYVDGVEVHNAKTKPREEQFNSTYRVVSVLTVLHQDWLNGKEYKCKVSNKGLPSSIEKTISKAKGQPREPQVYTLPPSQEEMTKNQVSLWCLVKGFYPSDIAVEWESNGQPENNYKTTPPVLDSDGSFFLYSRLTVDKSRWQEGNVFSCSVMHEALHNHYTQKSLSLSLGKGGGGSGGGGSGGGGSYTETALVALSQPRVQCHASRYPVAVDCSWTPLQAPNSTRSTSFIATYRLGVATQQQSQPCLQRSPQASRCTIPDVHLFSTVPYMLNVTAVHPGGASSSLLAFVAERIIKPDPPEGVRLRTAGQRLQVLWHPPASWPFPDIFSLKYRLRYRRRGASHFRQVGPIEATTFTLRNSKPHAKYCIQVSAQDLTDYGKPSDWSLPGQVESAPHKPGGGGSGGGGSGGGGSGGGGSFPTDPLSLQELRREFTVSLYLARKLLSEVQGYVHSFAESRLPGVNLDLLPLGYHLPNVSLTFQAWHHLSDSERLCFLATTLRPFPAMLGGLGTQGTWTSSEREQLWAMRLDLRDLHRHLRFQVLAAGFKCSKEEEDKEEEEEEEEEEKKLPLGALGGPNQVSSQVSWPQLLYTYQLLHSLELVLSRAVRDLLLLSLPRRPGSAWDS
chain 2: ESKYGPPCPPCPAPPVAGPSVFLFPPKPKDTLMISRTPEVTCVVVDVSQEDPEVQFNWYVDGVEVHNAKTKPREEQFNSTYRVVSVLTVLHQDWLNGKEYKCKVSNKGLPSSIEKTISKAKGQPREPQVYTLPPSQEEMTKNQVSLSCAVKGFYPSDIAVEWESNGQPENNYKTTPPVLDSDGSFFLVSRLTVDKSRWQEGNVFSCSVMHEALHNRFTQKSLSLSPGK

EC50 (M), STAT3 luciferase, MC9/STAT3-Luc cells [4]: 1.18e-11 M | FOLD INDUCTION, STAT3 luciferase, MC9/STAT3-Luc cells [4]: 5.59 fold
B5: IL27M24, monovalent Fc x EB13-p28 (K52A) (Fc fusion)
chain 1: B4 chain 1 with K497A
chain 2: B4 chain 2

FOLD INDUCTION, STAT3 luciferase, MC9/STAT3-Luc cells [4]: 1.2 fold
B6: IL27M27, monovalent Fc x EB13-p28 (W195A) (Fc fusion)
chain 1: B4 chain 1 with W640A
chain 2: B4 chain 2

EC50 (M), STAT3 luciferase, MC9/STAT3-Luc cells [4]: 1.98e-11 M | FOLD INDUCTION, STAT3 luciferase, MC9/STAT3-Luc cells [4]: 5.34 fold
B7: IL27M23, monovalent Fc x EB13-p28 (Y202A, Q203A) (Fc fusion)
chain 1: B4 chain 1 with Y647A, Q648A
chain 2: B4 chain 2

EC50 (M), STAT3 luciferase, MC9/STAT3-Luc cells [4]: 3.85e-10 M | FOLD INDUCTION, STAT3 luciferase, MC9/STAT3-Luc cells [4]: 2.8 fold
B8: IL27M26, monovalent Fc x EB13-p28 (L198A, L199A) (Fc fusion)
chain 1: B4 chain 1 with L643A, L644A
chain 2: B4 chain 2

FOLD INDUCTION, STAT3 luciferase, MC9/STAT3-Luc cells [4]: 4.35 fold
B9: IL27M25, monovalent Fc x EB13-p28 (L138A, R145A, H146A) (Fc fusion)
chain 1: B4 chain 1 with L583A, R590A, H591A
chain 2: B4 chain 2
